Reference: patent US20220054588A1, “USE OF SAP FOR THE TREATMENT OF EUROTIOMYCETES FUNGI INFECTIONS” (HUMANITAS MIRASOLE S.P.A., priority 2018, published 2022)

Columns and labels:
A. fumigatus conidia = test: FACS binding of biotin-conjugated murine SAP to A. fumigatus conidia, with competition; parameters: species or system Aspergillus fumigatus; settings: Sap 10 μg/ml
Method: FIG. 1 depicts the interaction of SAP with A. fumigatus conidia in mice. a) induction of SAP circulating levels after i.t. injection of 5×10^7 A. fumigatus (AF) conidia; LPS, 0.8 mg/Kg. Mean±SD. c) FACS analysis of binding of biotin-conjugated (b-) murine SAP (Sap; 10 μg/ml) to viable dormant or germinating conidia of AF (1×10^8). Human SAP (50 μg/ml) and CRP (50 μg/ml) were also used. Mean±SD of one quadruplicate experiment of two performed.
FIG. 10 depicts the susceptibility to A. fumigatus associated with single or double deficiency for SAP and PTX3. a and b, survival of wt and Apcs^−/−, Ptx3^−/− and Apcs^−/−, Ptx3^−/− mice after i.t. injection of 1×10^8 (a) or 5×10^7 (b) conidia. a, wt, n=9 (a, b); n=9 (a, b); Ptx3^−/−, n=7 (a) or n=10 (b); Ptx3^−/−, n=5 (a) or n=12 (b). a, b, P<0.05, wt vs. Apcs^−/− P<0.01 wt vs. Apcs^−/−, Ptx3^−/−; P=0.06, Apcs^−/−, Ptx3^−/− vs. Ptx3^−/− (Mantel-Cox test). a) Curves of wt and Apcs^−/− refer to the same ones shown in FIG. 2a-c FACS analysis of Sap (range from 0.1 to 10 μg/ml) binding to viable AF conidia (1×10^8) in presence of Ptx3 (50 μg/ml). An anti-Sap monoclonal antibody (non-reactive to Ptx3) was used. Mean±SD of a triplicate. **, P<0.01;***, P<0.005;****, P<0.0001 (unpaired t-test).
(§1) Binding of SAP. Conidia of A. fumigatus and A. flavus (1×10^8 CFU) were cultured 4 and 16 h under static condition in Sabouraud medium to respectively allow conidia swelling and germination. Blastospores and yeast of Candida albicans were prepared as previously described (Santus et al., 2017). Yeast (8×10^6/ml) were incubated at 37° C. for hyphal induction. Formation of hyphae was evaluated under a microscope at different time points until its amount was assessed at 95%. […] After extensive washing, samples were incubated (30 min, r. t.) with Alexa Fluor® 647-conjugated streptavidin and binding was evaluated by FACS as frequency and MFI and visualized by confocal microscopy as described. […]

Candida albicans = test: FACS binding of biotin-conjugated murine SAP to Candida albicans, with competition
Method: FIG. 16 depicts the binding of Sap on Candida. a) FACS analysis of binding of biotin-conjugated (b-) murine SAP (Sap; 10 μg/ml) to bastospore, yeast and hyphae of Candida albicans (1×10^8). Human SAP (50 μg/ml) was also used to compete binding of Sap. […] Survival of wt and Apcs^−/− mice after retroorbital injection of 1×10^6 blastospores of Candida albicans. wt, n=10; Apcs^−/− n=12.
as §1, with “95%. After washing with PBS^2+, pH 7.4, containing 0.01% (vol/vol) Tween-20 ® (Merck-Millipore), Cells (1×10^7 CFU) were incubated (1 h, r. t.) with biotin-labelled murine SAP (R&D Systems) at concentrations ranging from 0.1 to 10 μg/ml in PBS^2+, pH 7.4, containing 2% BSA (Sigma-Aldrich).” for “95%.”

A. fumigatus = test: Rescue experiment: survival after i.t. injection of Sap-opsonised A. fumigatus conidia; type: in vivo, mice; settings: 5×10^7 i.t.
Method: FIG. 5 depicts the rescue of susceptibility to A. fumigatus in SAP-deficient mice. a) b) c) d) i.t. injection of non-opsonised or Sap-opsonised AF conidia. a) survival of wt and Apcs^−/− mice. Wt, n=10; wt+Sap, n=10; Apcs^−/−, n=14; Apcs^−/−+Sap, n=13.****, P<0.0001, wt vs. Apcs^−/− or Apcs^−/− vs. Apcs^−/−+Sap (Mantel-Cox test). b) and c) levels of TNF-α (b) and MPO (c) in BALFs of mice (16 h). b),****, P<0.0001;**, P<0.01. c),***, P<0.0005. d, FACS analysis of neutrophil recruitment in lung (16 h). Mean±SEM.****, P<0.0001;*, P<0.05. b), c), d), Mean±SEM; Mann-Whitney test.
The growth and culture conditions of A. fumigatus and A. Flavus conidia were as described (Garlanda et al., 2002). For intratracheal (i.t.) injection, mice were anesthetized by i.p. injection of ketamine (100 mg/Kg; i.p.) and xylazine (10 mg/Kg i.p.). After surgical exposure, a volume of 50 μl PBS^2+, pH 7.4, containing 1×10^8 or 5×10^7 resting conidia (>95% viable, as determined by serial dilution and plating of the inoculum on Sabouraud dextrose agar) were delivered into trachea under direct vision using a catheter connected to the outlet of a micro-syringe (Terumo, Belgium). Survival to infection was daily monitored for 10d later. Dying mice were euthanized after evaluation of the following clinical parameters: body temperature dropping, intermittent respiration, solitude presence, sphere posture, fur erection, non-responsive alertness, and inability to ascent when induced.
In experiments of in vivo phagocytosis, mice were i.t. injected with 5×10^7 heat inactivated fluorescein isothiocyanate (FITC)-labelled conidia and euthanized 4 h later. In rescue experiments, conidia (1×10^9) were opsonized with murine recombinant SAP (50 μg/ml; R&D Systems) for 1 h at r.t. in PBS, pH 7.4, containing 0.01% (vol/vol) Tween-20® (Merck-Millipore). After washing of unbound protein, a volume of 50 μl (5×10^7 conidia) was i.t. injected.

Molecule | competition of murine SAP binding to A. fumigatus conidia (A. fumigatus conidia; competitor 50 μg/ml) | competition of Sap binding to Candida albicans (Candida albicans; competitor 50 μg/ml) | binding to A. fumigatus conidia (A. fumigatus conidia; FACS and confocal microscopy) | MST (A. fumigatus; Apcs−/− mice) | mice that resisted infection (survival) (A. fumigatus; Apcs−/− mice) | MST (A. fumigatus; wt mice) | survival (A. fumigatus; wt mice) | binding to blastospores, yeasts and hyphae of Candida albicans (Candida albicans; Sap 10 μg/ml)
human native SAP: Native SAP from human serum purchased by Merck-Millipore; Serum Amyloid P component, SEQ ID NO: 1 | competed | competed |  |  |  |  |  | 
recombinant murine SAP: recombinant murine SAP from mouse myeloma cell line NSO (R&D Systems) (protein, UniProt P12246 21-224, looked up) Serum amyloid P-component: QTDLKRKVFVFPRESETDHVKLIPHLEKPLQNFTLCFRTYSDLSRSQSLFSYSVKGRDNELLIYKEKVGEYSLYIGQSKVTVRGMEEYLSPVHLCTTWESSSGIVEFWVNGKPWVKKSLQREYTVKAPPSIVLGQEQDNYGGGFQRSQSFVGEFSDLYMWDYVLTPQDILFVYRDSPVNPNILNWQALNYEINGYVVIRPRVWD |  |  | bound viable dormant, swollen and germinated conidia | > 10 days | 69% | > 10 | 70% | bound with low affinity
